Reference: PMC8455438 (Molecular cell, 2021)
Like-named read-outs stand apart in the source and are kept apart here.

T1: Recombinant IDH2 (R140Q) protein (ACTIVE MOTIF) (human, UniProt P48735 40-452, R140Q)
T1 sequence (looked up): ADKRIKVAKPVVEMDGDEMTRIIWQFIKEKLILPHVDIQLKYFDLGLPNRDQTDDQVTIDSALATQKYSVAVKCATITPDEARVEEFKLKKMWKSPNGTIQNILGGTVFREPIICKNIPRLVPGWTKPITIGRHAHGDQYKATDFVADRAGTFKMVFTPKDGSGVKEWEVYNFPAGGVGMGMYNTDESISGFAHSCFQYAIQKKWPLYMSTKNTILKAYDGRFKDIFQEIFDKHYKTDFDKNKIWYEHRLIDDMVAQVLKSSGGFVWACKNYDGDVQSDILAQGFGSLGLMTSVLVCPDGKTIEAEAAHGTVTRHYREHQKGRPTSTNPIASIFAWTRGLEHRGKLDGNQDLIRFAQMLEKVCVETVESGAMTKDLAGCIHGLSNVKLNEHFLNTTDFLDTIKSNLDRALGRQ


Tests used:
[1] = target: the molecule itself; assay: native gel or EMSA
[2] = target: the molecule itself; assay: native gel or EMSA; remark: listed apart in the source
[3] = target: T1, Recombinant IDH2 (R140Q) protein …; assay: co-IP

Binder	stoichiometry N [1]	binding result [3]	other results
6xHis-IDH2 R140Q-FLAG, K413 not acetylated (pre-treated with cobB protein deacetylase, or deacetylated by rSIRT3) (enzyme, human, UniProt P48735 40-452, looked up) ADKRIKVAKPVVEMDGDEMTRIIWQFIKEKLILPHVDIQLKYFDLGLPNRDQTDDQVTIDSALATQKYSVAVKCATITPDEARVEEFKLKKMWKSPNGTIQNILGGTVFREPIICKNIPRLVPGWTKPITIGRHAHGDQYKATDFVADRAGTFKMVFTPKDGSGVKEWEVYNFPAGGVGMGMYNTDESISGFAHSCFQYAIQKKWPLYMSTKNTILKAYDGRFKDIFQEIFDKHYKTDFDKNKIWYEHRLIDDMVAQVLKSSGGFVWACKNYDGDVQSDILAQGFGSLGLMTSVLVCPDGKTIEAEAAHGTVTRHYREHQKGRPTSTNPIASIFAWTRGLEHRGKLDGNQDLIRFAQMLEKVCVETVESGAMTKDLAGCIHGLSNVKLNEHFLNTTDFLDTIKSNLDRALGRQ	2	–	–
6xHis-IDH2 R140Q-FLAG, K413-acetylated (by rACAT1 after cobB pre-treatment, or with intrinsic lysine acetylation obtained in bacteria) (enzyme, human, UniProt P48735 40-452, looked up, acetyl-lysine at K413 (rACAT1 acetylates mutant IDH2 at multiple lysine sites; intrinsic lysine acetylation obtained in bacteria)) ADKRIKVAKPVVEMDGDEMTRIIWQFIKEKLILPHVDIQLKYFDLGLPNRDQTDDQVTIDSALATQKYSVAVKCATITPDEARVEEFKLKKMWKSPNGTIQNILGGTVFREPIICKNIPRLVPGWTKPITIGRHAHGDQYKATDFVADRAGTFKMVFTPKDGSGVKEWEVYNFPAGGVGMGMYNTDESISGFAHSCFQYAIQKKWPLYMSTKNTILKAYDGRFKDIFQEIFDKHYKTDFDKNKIWYEHRLIDDMVAQVLKSSGGFVWACKNYDGDVQSDILAQGFGSLGLMTSVLVCPDGKTIEAEAAHGTVTRHYREHQKGRPTSTNPIASIFAWTRGLEHRGKLDGNQDLIRFAQMLEKVCVETVESGAMTKDLAGCIHGLSNVKLNEHFLNTTDFLDTIKSNLDRALGRQ	–	–	stoichiometry N [2]: 2
6xHis-IDH2 R140Q/K413R-FLAG (acetyl-deficient) (enzyme, human, UniProt P48735 40-452, looked up) ADKRIKVAKPVVEMDGDEMTRIIWQFIKEKLILPHVDIQLKYFDLGLPNRDQTDDQVTIDSALATQKYSVAVKCATITPDEARVEEFKLKKMWKSPNGTIQNILGGTVFREPIICKNIPRLVPGWTKPITIGRHAHGDQYKATDFVADRAGTFKMVFTPKDGSGVKEWEVYNFPAGGVGMGMYNTDESISGFAHSCFQYAIQKKWPLYMSTKNTILKAYDGRFKDIFQEIFDKHYKTDFDKNKIWYEHRLIDDMVAQVLKSSGGFVWACKNYDGDVQSDILAQGFGSLGLMTSVLVCPDGKTIEAEAAHGTVTRHYREHQKGRPTSTNPIASIFAWTRGLEHRGKLDGNQDLIRFAQMLEKVCVETVESGAMTRDLAGCIHGLSNVKLNEHFLNTTDFLDTIKSNLDRALGRQ	2	–	–
6xHis-IDH2 R140Q/K413Q-FLAG (acetyl-mimetic) (enzyme, human, UniProt P48735 40-452, looked up) ADKRIKVAKPVVEMDGDEMTRIIWQFIKEKLILPHVDIQLKYFDLGLPNRDQTDDQVTIDSALATQKYSVAVKCATITPDEARVEEFKLKKMWKSPNGTIQNILGGTVFREPIICKNIPRLVPGWTKPITIGRHAHGDQYKATDFVADRAGTFKMVFTPKDGSGVKEWEVYNFPAGGVGMGMYNTDESISGFAHSCFQYAIQKKWPLYMSTKNTILKAYDGRFKDIFQEIFDKHYKTDFDKNKIWYEHRLIDDMVAQVLKSSGGFVWACKNYDGDVQSDILAQGFGSLGLMTSVLVCPDGKTIEAEAAHGTVTRHYREHQKGRPTSTNPIASIFAWTRGLEHRGKLDGNQDLIRFAQMLEKVCVETVESGAMTQDLAGCIHGLSNVKLNEHFLNTTDFLDTIKSNLDRALGRQ	2	–	–
recombinant ACAT1 (mitochondrial acetyl-coA acetyltransferase), wild type (enzyme, UniProt P24752 34-427, looked up) VSKPTLKEVVIVSATRTPIGSFLGSLSLLPATKLGSIAIQGAIEKAGIPKEEVKEAYMGNVLQGGEGQAPTRQAVLGAGLPISTPCTTINKVCASGMKAIMMASQSLMCGHQDVMVAGGMESMSNVPYVMNRGSTPYGGVKLEDLIVKDGLTDVYNKIHMGSCAENTAKKLNIARNEQDAYAINSYTRSKAAWEAGKFGNEVIPVTVTVKGQPDVVVKEDEEYKRVDFSKVPKLKTVFQKENGTVTAANASTLNDGAAALVLMTADAAKRLNVTPLARIVAFADAAVEPIDFPIAPVYAASMVLKDVGLKKEDIAMWEVNEAFSLVVLANIKMLEIDPQKVNINGGAVSLGHPIGMSGARIVGHLTHALKQGEYGLASICNGGGGASAMLIQKL	–	binds	–
recombinant ACAT1 Y407F (phosphor-deficient mutant) (enzyme, UniProt P24752 34-427, looked up) VSKPTLKEVVIVSATRTPIGSFLGSLSLLPATKLGSIAIQGAIEKAGIPKEEVKEAYMGNVLQGGEGQAPTRQAVLGAGLPISTPCTTINKVCASGMKAIMMASQSLMCGHQDVMVAGGMESMSNVPYVMNRGSTPYGGVKLEDLIVKDGLTDVYNKIHMGSCAENTAKKLNIARNEQDAYAINSYTRSKAAWEAGKFGNEVIPVTVTVKGQPDVVVKEDEEYKRVDFSKVPKLKTVFQKENGTVTAANASTLNDGAAALVLMTADAAKRLNVTPLARIVAFADAAVEPIDFPIAPVYAASMVLKDVGLKKEDIAMWEVNEAFSLVVLANIKMLEIDPQKVNINGGAVSLGHPIGMSGARIVGHLTHALKQGEFGLASICNGGGGASAMLIQKL	–	binds	–
recombinant ACAT1 treated with rFLT3 (Y407-phosphorylated) (enzyme, UniProt P24752 34-427, looked up, phosphotyrosine at Y407 (by rFLT3)) VSKPTLKEVVIVSATRTPIGSFLGSLSLLPATKLGSIAIQGAIEKAGIPKEEVKEAYMGNVLQGGEGQAPTRQAVLGAGLPISTPCTTINKVCASGMKAIMMASQSLMCGHQDVMVAGGMESMSNVPYVMNRGSTPYGGVKLEDLIVKDGLTDVYNKIHMGSCAENTAKKLNIARNEQDAYAINSYTRSKAAWEAGKFGNEVIPVTVTVKGQPDVVVKEDEEYKRVDFSKVPKLKTVFQKENGTVTAANASTLNDGAAALVLMTADAAKRLNVTPLARIVAFADAAVEPIDFPIAPVYAASMVLKDVGLKKEDIAMWEVNEAFSLVVLANIKMLEIDPQKVNINGGAVSLGHPIGMSGARIVGHLTHALKQGEYGLASICNGGGGASAMLIQKL	–	binds	–
